Assay in all cases: IEDB peptide-MHC binding, purified MHC/competitive/fluorescence; filed as Kd, often an IC50 or EC50 that approximates it; ≥ and ≤ were set here for values at or beyond the usual limits of such assays
Common to all, as to conditions: source organism: Salmonella enterica subsp. enterica serovar Typhi

The target in assay [1] is HLA-B*15:01.
For assay [2], the target named is HLA-C*04:01.
Assay [3] addresses HLA-A*03:19.
Assay [4] has as its target HLA-B*45:06.
Assay [5] concerns the target HLA-B*40:13.
Assay [6] concerns the target HLA-C*06:02.
Assay [7] has as its target HLA-A*32:15.
The target of assay [8] is HLA-B*51:01.
Assay [9] has as its target HLA-B*15:42.
In assay [10] the target is HLA-A*02:01.
Assay [11] has as its target HLA-B*58:01.
In assay [12] the target is HLA-A*68:23.
Assay [13] deals with HLA-A*32:07.

These results are taken from the Immune Epitope Database (IEDB).

Regarding MTMLTRWKI, the dissociation constant Kd (usually a measure of binding affinity in units of concentration) in assay [1] is no less than 20000 nM; in [2] it was no less than 5000 nM; in assay [3], 3510 nM; in assay [4] it was no less than 5000 nM; in assay [5], 365 nM; in assay [6], 641 nM. Further, the Kd in assay [7] is 47.8 nM; in assay [8], no less than 20000 nM; in [9], no less than 5000 nM; in assay [10] it was 222 nM; in assay [11] it was 5 nM; in assay [12], 0.3 nM. For the same sequence, in assay [13], the Kd came out at 77.2 nM.
